B1: Protein zyg-11 homolog B (Homo sapiens), Q9C0D3 (parent)
chain: MPEDQAGAAMEEASPYSLLDICLNFLTTHLEKFCSARQDGTLCLQEPGVFPQEVADRLLRTMAFHGLLNDGTVGIFRGNQMRLKRACIRKAKISAVAFRKAFCHHKLVELDATGVNADITITDIISGLGSNKWIQQNLQCLVLNSLTLSLEDPYERCFSRLSGLRALSITNVLFYNEDLAEVASLPRLESLDISNTSITDITALLACKDRLKSLTMHHLKCLKMTTTQILDVVRELKHLNHLDISDDKQFTSDIALRLLEQKDILPNLVSLDVSGRKHVTDKAVEAFIQQRPSMQFVGLLATDAGYSEFLTGEGHLKVSGEANETQIAEALKRYSERAFFVREALFHLFSLTHVMEKTKPEILKLVVTGMRNHPMNLPVQLAASACVFNLTKQDLAAGMPVRLLADVTHLLLKAMEHFPNHQQLQKNCLLSLCSDRILQDVPFNRFEAAKLVMQWLCNHEDQNMQRMAVAIISILAAKLSTEQTAQLGTELFIVRQLLQIVKQKTNQNSVDTTLKFTLSALWNLTDESPTTCRHFIENQGLELFMRVLESFPTESSIQQKVLGLLNNIAEVQELHSELMWKDFIDHISSLLHSVEVEVSYFAAGIIAHLISRGEQAWTLSRSQRNSLLDDLHSAILKWPTPECEMVAYRSFNPFFPLLGCFTTPGVQLWAVWAMQHVCSKNPSRYCSMLIEEGGLQHLYNIKDHEHTDPHVQQIAVAILDSLEKHIVRHGRPPPCKKQPQARLN

Variants of: B1
Settings: with eloc_human ELOC
For L18S, the “effect of a mutation on the interaction” value was “disrupting interaction”.
In the case of C22S, the “effect of a mutation on the interaction” value is reported as “disrupting interaction”.
